Results published in paper PMC12905498 (2026).

T1: Plasmodium falciparum HAP2 domain 3 (PfHAP2 D3 HisAvi), deglycosylated (P. falciparum, deglycosylated with PNGase F)
T1 chain: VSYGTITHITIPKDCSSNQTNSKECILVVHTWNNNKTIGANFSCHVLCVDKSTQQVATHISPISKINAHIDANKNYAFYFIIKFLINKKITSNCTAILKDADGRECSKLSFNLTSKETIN

T2: Plasmodium berghei HAP2 domain 3 (P. berghei)
T2 chain: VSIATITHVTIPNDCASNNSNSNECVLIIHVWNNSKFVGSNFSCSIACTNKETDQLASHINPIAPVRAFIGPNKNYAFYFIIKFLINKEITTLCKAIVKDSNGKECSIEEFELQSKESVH

T3: Plasmodium vivax HAP2 domain 3 (P. vivax)
T3 chain: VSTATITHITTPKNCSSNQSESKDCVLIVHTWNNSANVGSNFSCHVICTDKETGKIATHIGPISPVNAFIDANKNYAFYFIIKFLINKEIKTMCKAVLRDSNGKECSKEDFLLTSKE

B1: WNbFc 335 (nanobody WNb 335 fused to hinge and Fc of human IgG1) (Fc fusion)
chain: QVQLQESGGGLVQPGGSLRLSCEASASGTIVALGTMAWYRQAPGNQRELVATITEESSTYYADSVKGRCTISRDNARNTMYLRLNSLKPEDTAVYYCNLANFWGQGTQVTVSS
B2: WNbFc 334 (nanobody WNb 334 fused to hinge and Fc of human IgG1) (Fc fusion)
chain: QVQLQESGGGLVQPGGSLRLSCAASGFTLDDYAIGWFRQDPGKGREGVSCISLSDGSTYYADAVTGRFTISRDNAKDTVYLQMNSLKPEDTAVYYCAALSQKQMTTVQAMCAVPIANYWGQGTQVTVSS
B3: anti-PbHAP2 D3 mAb 6.14 (variable regions in AbVec-hIgG1 and AbVec-IgKappa) (antibody, V domains shown)
VH: EVQLVESGGGLVKPGGSLKLSCAASEFTFSDYGMHWVRQAPEKGLEWVASISSGSNSIYYSDTVKGRFTISRDNAKSILFLQMTSLRSEDTAMYYCSREAYFAMDYWGQGTSVTVSS
VL: DIQMTQSPSSLSAILGGKVTITCKASQDIHKYIAWYQHKPGKGPRLLIYYTSTLQPGIPSRFSGSGSGRDYSFSISNLEPEDVATYFCLQYDNLYTFGGGTKVEIE
B4: anti-PbHAP2 D3 mAb 1.12 (variable regions in AbVec-hIgG1 and AbVec-IgKappa) (antibody, V domains shown)
VH: EFQLLQSGPELVKPGASVKISCKASDYSLSDYNMNWVRQRSGKSLEWIGVINPNHGTTHYNQKFKGKATLTVDQSSSTAYMQLTSLTSEDSAVYYCASPIHYGNHVPFDYWGQGTTVTVSS
VL: DIQMTQTTSSLSASLGDRVTISCRTGQDISNYLNWYQQKPDGTVKLLIYFTSRLHSGVPSRFSGSGSGTDYSLTISNLEQEDIATYFCQQGITLPWTFGGGTKLEIK
B5: WNbFc 333 (nanobody WNb 333 fused to hinge and Fc of human IgG1) (Fc fusion)
chain: QVQLQESGGGSVQPGGSLRLSCAASGFTLEDYAIGWFRQAPGKGREGISCISSTDGSTHYADSAKGRFTISRDDAKNTAYLQMNSLKVEDTDVYYCAALSQEHMITVQRMCAVPAAHYWGRGTQVTVSS

Tests used:
[1] = target: T1, Plasmodium falciparum HAP2 domain 3 …; assay: BLI
[2] = target: T1, Plasmodium falciparum HAP2 domain 3 …; assay: BLI; single experiment
[3] = target: T2, Plasmodium berghei HAP2 domain 3; assay: BLI
[4] = target: T3, Plasmodium vivax HAP2 domain 3; assay: BLI

| Binder | Kd [1] [nM] | Kd [2] [nM] | Kd [3] [nM] | Kd [4] [nM] |
| --- | --- | --- | --- | --- |
| B1 | 38.8 | 35.2 |  |  |
| B2 | 22.2 | 19.7 | 1440 |  |
| B3 |  |  | 12.1 |  |
| B4 |  |  | 5.1 |  |
| B5 | 10.5 | 9.5 | 3650 | 2250 |
